Source: a protein production outcome set (Wang et al. 2014)

Assay: label from the status in PepcDB records
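Further: failed if final PepcDB status was selected cloned or expressed and not failed if soluble or beyond.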

Sequence	protein production
MAEKSQIPDNNNNTSSSAKKPTPEIGSGSGKRYYNPPESVNPDQATLREQWKFAIRQYSKWYSHAWGTAILAGGFFFGLGWIIKGSNPLPSLQSSSKPRDEEK	failed
MTVAPFDTAKLDRLMEEAGIDVIAATSKHNTQYLMGGYKFIFFAAMDAIGHSRYLPMVIYEKGAPDHSAYVGNRMEGAEHQNNPFWTPAVHTATWGTQDAAGLAVEHLKKIGKASGRIGIEPAFLPSDARDLLASRLDGARFVDATHVLERLRAVKTADELAKLRRASELITDSMLATIAAARAGSTKLEIIEQLRREETNRGLHFEYCLLTLGASHNRAGSPQAWAEGEILSIDSGGNYHGYIGDLCRMGVLGEPDAELEDLLAEVERIQQAAFAKVRAGVLGSEMIVAAEAELKASPSAAFTDFFCHGMGLITHEAPFLMTNHPVAYEGIDADKPLEAGNVISVETTMLHPKRGFIKLEDTLAITDKGYEMFGDRGRGLEHHHHHH	failed
MNEFAQSPRSCVLGCSGLGYSVRGTPLLSDVDLSIATGETLAVVGPNGSGKSTLLKLLAGIQKPGSGAVRLGEQALAAMSRRDVARLLAVVEQQAETSDAVTVLDAVELGRTPWLSALEPWSANDDAIVRQALQDVDMLHMQKRAWHTLSGGERQRVHIARALAQRPQILLLDEPTNHLDIQHQLTILGLVRALPVTTVIALHDLNQALDCDRVAVMEKGRLVALGTPVEVLTPKRLLSTFGVVAHWLTDPFDGAKILRLRSR	failed
MKHAKQIAEHATIQSFLNCYLRETGSGEWITEDKRIEDIFYHLFQRDTCSTYLCCRLSAQNITLYGEVIYKSPTDRHLFGEQFYYQMGDSNSVMKADYVTVITFLIKEMSINYGEGTNPAELMLRVIRSCQNIEEFTKERKEDTSALYGFHTSFIEAEQSLLFGHLTHPTPKSRQGILEWKSAMYSPELKGECQLHYFRAHKSIVNEKSLLLDSTTVILKEELRNDEMVSKEFISKYCNEDEYSLLPIHPLQAEWLLHQPYVQDWIEQGVLEYIGPTGKCYMATSSLRTLYHPDAKYMLKFSFPVKVTNSMRINKLKELESGLEGKAMLNTAIGEVLEKFPGFDFICDPAFITLNYGTQESGFEVIIRENPFYSEHADDATLIAGLVQDAIPGERTRLSNIIHRLADLESRSCEEVSLEWFRRYMNISLKPMVWMYLQYGVALEAHQQNSVVQLKDGYPVKYYFRDNQGFYFCNSMKEMLNNELAGIGERTGNLYDDYIVDERFRYYLIFNHMFGLINGFGTAGLIREEILLTELRTVLESFLPYNREPSTFLRELLEEDKLACKANLLTRFFDVDELSNPLEQAIYVQVQNPLVREVAVRS	failed
MALQAGVEKGENLVVAAPTGSGKTFIALVAIVNSLARAGGRAFYLVPLKSVAYEKYTSFSILSRMGLKLKISVGDFREGPPEAPVVIATYEKFDSLLRVSPSLARNVSVLIVDEIHSVSDPKRGPILESIVSRMLASAGEAQLVGLSATVPNAGEIAEWIGGKIVESSWRPVPLREYVFKEYKLYSPTGGLREVPRVYGLYDLDLAAEAIEDGGQALVFTYSRRRAVTLAKRAAKRLGRRLSSREARVYSAEASRAEGAPRSVAEELASLIAAGIAYHHAGLPPSLRKTVEEAFRAGAVKVVYSTPTLAAGVNLPARRVVIDSYYRYEAGFREPIRVAEYKQMAGRAGRPGLDEFGEAIIVAERLDRPEDLISGYIRAPPERVESRLAGLRGLRHFILGIVAPEGEVSIGSIEKVSGLTLYSLQRGLPRETIARAVEDLSAWGLVEVKGWRIAATSLGREVAAVYLDPESVPVFREEVKHLSFDNEFDILYLISTMPDMVRLPATRREEERLLEAILDASPRMLSSVDWLGPEEMAAVKTAVVLKLWIDEASEDTIYGEWGVHTGDLLNMVSTAEWIASGLSRIAPYLGLNSKVSHILSVIARRIKHGVKPELLQLVEIPGVGRVRARILFEAGYRSIEDLATARAEDLMRLPLIGPSTARQILEFLGRVDEAREAEAREMLARKGLLSYLEGDAVAGEEGE	failed
MKKLLLSLTLTVLLGLLGRPAIAANYEIKLVDEGVFAAIALPEGKAASNALIIITPHQVILAGAHFVPEGIKELIADIAEITPLPLRSVILTHHHKGFNYVDFDFPANVEIITSWQTWQALKAETRPLRNPVTFFEKGLTLLRSNTTIVLSSADFGHTEGDVFLFLPNEGILFASDLFYNDVVGYMGEGHMRDWVITLETLEAVGAQYVVPGLGQVTDRSGLRRFRLFFKDFLTEVLRHMEAGKTLAETKKLFRLPAHEGMPGYKAFLDVNLDRAYQDLRDQ	failed
MTPAARLSAAIGILDRILGGTPAEQALTNWGRASRFAGSGDRAAVRDLVFDALRCRRSFARAGGAETGRGLVLGGLRMAGQEVGDLFTGEGHAPAPPAGSELKPQAPAELEALDCPDWLAPALRDSLGADFAPVMEALRHRAPVFLRVNLARTDRAAAAAELAAEGIVTQPHPLAETALEVTENPRRLQASAAYREGRVELQDAASQAIVAALPLAPGDRVLDYCAGGGGKSLAMAARAPIDLSAHDADPRRMRDLPERAARAGVKVRRLAPGDPARRGPFDLVLADVPCSGSGSWRRAPEGKWSLTPERLAELRAIQSTILDEVAPLVRPGGHLAYATCSLLASENAGQTEAFLERTSGWTRVHQLRLTPLDGGDGFFLDLLQRNG	failed
MTETNHDQAEYWGKSASGMKWLTFEEQIAASFAPVVDLLLERAALKPGQRVLDIGCGLGDVTLAAAQAVGPGGHVLGVDISAPFLERAGLRASGMGNVGFALADAQSEPFAPAERDAVLSRFGMMFFSDTVAAFANIARALKPGGRMTFAAWGPLAGNPWFYLPHRAATDRLGQMPKVDRNAPGPLAFHDIDRVTGLMAEAGLADIEAQAVDLNLTPPGGLEGAAALCTRLGPAARVLAHFNGSEADEAAIRDAVSAALEPYVEGGEVLMPATINLFQARRAGTA	failed
MVDELFCPQCGMLKRRCKCRKRSIRQRNLELLKKVGYKEFLLPLFDTDDEIVLYKVLRPFREKPTEELDFLPSELASCLRKRGIGRLYPFQKEAMIRLMEGRDVVITAPTGFGKTEAFAVPMLWRALHGGKAMVFYPTKALARDQEEKIKFYTSSLGLRAVRFDGDSGREERRAVLSGKCDIILTNPDMVDYHLRNTPAFRRICRELSFIAVDELHTYTGVLGSNMHYLVKRLSRFAEFQIACASATLSNAAEFAEELFDRDFVLVSGEHRKGTLHLIFRYTPSLYSAVREIVTALRNRKIIVFGNSYKSVETINLILRRHGLKSAIHKSGLPKEVREEVEAKFKRGEINIVVSTPTLELGVDIGDVDVVVSELVPYGQMIQRVGRAGRKGQESVGVVILREDDSISTYYRTKPEDYFKEEANGYVERHNEEVMKFQLISMCIEKPVRLEELDRQSAEIMQKLQAQGIVVEREGAFHPTAKAIELSRAFSFRGIGDAVKIYHDGKYIGERALPIAVKELFPGSILVHNGVRYRTVELDLKRLRAEVVELDYGNEITDPLYMTIPRIIEVEDEIEEPVNAVYCSIEINYLVHGYIERDVFDRERKAFHYLDEPVSYTFKTKGFLFSAPFPDPADYEDYYAGSFHALEHVIIETTDAITGGGSREMGGISVPEGDIFVYDASVGGSGLSKLLFKRLRRAFEISKTILESCDCGRVDGCPKCTYSYQCGNNNQPLNRIGALNIAEKVIKGVKRKTDWRKYTDVIEIRYFPLEHHHHHH	failed
MAFTKIIFKNPNTGAIKEAPVGFSWTVFFFGFIPALFRADWKWAAIMFLLAMFTFGLSNLVFMFIYNKLYVRDLIGAGFKAQSIASGDLNFASSRIGMEIPRLEAA	failed
MYAVPILNVYDFEVKKDKETSYKSATEDYVNKTMGVEQGVLGLFAATDERDKTTSYIVEIYNDYLAFSNHTKNQASKDFKAVIPQIAEGNLNSAEIDVQIAKDKKIEQNDNTFAVYTVIDVKPENDKEFAEIIKNIVETTFNEEGTLLVYLGTDRRNFNKWCLFEVYKDIDSYLNHRSAKYFKDYITQTKDMIAGKKRAELQVLKIENKGGLDYKKLY	not failed
MMCAARNTMSSSGSSPSGSDLQAFVMEFIITGFLMLVVCAVTTTKRTTEELEGLIIGATVTLNVIFVGEVSGASMNPARSIGPALVWGCYKGIWIYLLAPTLGAVSRALIHKMLPSIPNAEPKFSKTGSSHKRVSDLPL	failed
MKEVSAAPKITNVKAAILGFQHLLAMYSGDVLVPLLIGAALHFSQEQLTYLVSIDIFMCGIATFLQLKRTPLTGIGLPVVLGCAVQAVNPLIQIGKTYGLGTMYGSIIGAGIFIFLIAGLFSKIKNLFPPVVTGSLITIIGFTLIPVAFQNLGGGDTSAKDFGNLQALGIGFLTIAIILLISVFARGFMKSVSILIGILVGTLIAGAMGMVSLKPVAEASWFHLPTLFYFGTPHFEWSSILTMILVSLTTMVESTGVFFALGDITGRKIEGDDLKRGYRAEGIAVILGGLFSTFPYSTFSENVGVVQLSGVKTRKPIYFSAAFLVVLGLLPKIGALATIIPDPVLGGAMVVMFGIVGIQGIRMLAQVDFRNNNNLLVAAVSIGLGLGVTVQTNIFQFLPGALQIMLSNGVVVGSVAAVGLNLLFNRHAAENTVDDESVGLNETEQP	failed
MSLAQADGIAFRELSFPEALKRAEVEDKLLFVDCFTTWCGPCKRLSKVVFKDSLVADYFNRHFVNLKMDMEKGEGVELRKKYGVHAYPTLLFINSSGEVVYRLVGAEDAPELLKKVKLGVESEGHHHHHH	not failed
MSLELARRLVEILLALALIQQSLEHLRGFRDERILFGARIVLAVLVLAGVAGPWPLVGLAGLSLLILHRFQGPYNGGSDRMGLLILWCLTLSSLAPTPILAELAFGYLGAQLTLSYFISGWVKVVNPDWRSGRALRDVFQFSAYPVAESLRGFAQRPGLLRAMSWGVMGFELAFPLTLLWPPALMVGLVVAGTFHLANACLFGLNRFFWTWLSAYPAILWLQGRVF	failed
GSHMKEDQVVAEEPGFQDEEESLFQDIDLLQKHGINVADIKKLKSVGICTIKGIQMTTRRALCNVKGLSEAKVDKIKEAANKLIEPGFLTAFEYSEKRKMVFHITTGSQEFDKLLGGGIESMAITEAFGEFRTGKTQLSHTLCVTAQLPGAGGYPGGKIIFIDTENTFRPDRLRDIADRFNVDHDAVLDNVLYARAYTSEHQMELLDYVAAKFHEEAGIFKLLIIDSIMALFRVDFSGRGELAERQQKLAQMLSRLQKISEEYNVAVFVTNQMTADPGATMTFQADPKKPIGGHILAHASTTRISLRKGRGELRIAKIYDSPEMPENEATFAITAGGIGDAKE	not failed
MSSDAIETIETYLRPGAWVEDAAGPLYVRLRKRIEQGIDSGLLAKSAPLPAEREIASLTGLSRVTVRRAMQELVDRGIIVQRQGSGSFVADAAPRVEQSLSHLTSFTEDMERRGLNVTSEWLTRGVFIPSPEEVMALALSSGEQVARVARLRRAEGRPMAIERASLPTDILPDPELVSSSLYAVLERDGNRPVRALQRISAVNLGAEDAALLGVEPGTAGLRIIRTSYLPNRRVIEYTRSLYRADAYDFVAELRLGNS	failed
MNADGWLADTRSSYDTVAVSYADQLRGALAGTPYLRAALELFAGMIHTAGGGPVADVGCGPGHVTAHLHGLGVDAFGIDLSPAMIDVARRDHPDLRFEVGSMTDLNLADASVTALLAFWSLIHVPDDAIPAVFGHFRRVVRPGGPLLLGFHIGDESRLKTEGYGGHPMKVHVHHRQPVQVTAWLRDAGFTVEAQWLLGLDGHIPGAVLFAHRQSLEHHHHHH	failed
MTLLWGLLSGMAVIGGLIGVVAGLVGTTAPRRAPLQQRWQALRAGKDQGEDVRLRRRTLAALAVVVFVAVWLVSGNFVGGALLGVAVVGVPWLISPAQMAQERIGQLEALSEWTQRLAGLLRLGMGLEQAMITSRQGAPDELAPQIVNLSDRLRLGWRPDGALRAFAEELNDVTADKVVAALILSVNDRGPGLAQALEDLAGTVRDEVAKKRAIEADRAKPRTTVRWMTVITVGVVVAGFFVPSYTKPYSTLLGQLVLAFLTVGFIGVLALMRQLGAFRRIPRFLITDPSSTVRLPLAGDGAGRAGRWP	failed
MDSDADGGETVSNFSENSTDFEETEEYIVERILDRRHYMGQLQYLVKWLDYSDEDNTWESAADLDCHSLIDSIESQKSLKRGQELNNQYETKAKRLKIDP	failed
